{"source": "paper PMC5472698", "origin": "cited, not measured here", "target": "CD21 (Homo sapiens) (UniProt P20023)", "sequence (P20023 21-1033)": "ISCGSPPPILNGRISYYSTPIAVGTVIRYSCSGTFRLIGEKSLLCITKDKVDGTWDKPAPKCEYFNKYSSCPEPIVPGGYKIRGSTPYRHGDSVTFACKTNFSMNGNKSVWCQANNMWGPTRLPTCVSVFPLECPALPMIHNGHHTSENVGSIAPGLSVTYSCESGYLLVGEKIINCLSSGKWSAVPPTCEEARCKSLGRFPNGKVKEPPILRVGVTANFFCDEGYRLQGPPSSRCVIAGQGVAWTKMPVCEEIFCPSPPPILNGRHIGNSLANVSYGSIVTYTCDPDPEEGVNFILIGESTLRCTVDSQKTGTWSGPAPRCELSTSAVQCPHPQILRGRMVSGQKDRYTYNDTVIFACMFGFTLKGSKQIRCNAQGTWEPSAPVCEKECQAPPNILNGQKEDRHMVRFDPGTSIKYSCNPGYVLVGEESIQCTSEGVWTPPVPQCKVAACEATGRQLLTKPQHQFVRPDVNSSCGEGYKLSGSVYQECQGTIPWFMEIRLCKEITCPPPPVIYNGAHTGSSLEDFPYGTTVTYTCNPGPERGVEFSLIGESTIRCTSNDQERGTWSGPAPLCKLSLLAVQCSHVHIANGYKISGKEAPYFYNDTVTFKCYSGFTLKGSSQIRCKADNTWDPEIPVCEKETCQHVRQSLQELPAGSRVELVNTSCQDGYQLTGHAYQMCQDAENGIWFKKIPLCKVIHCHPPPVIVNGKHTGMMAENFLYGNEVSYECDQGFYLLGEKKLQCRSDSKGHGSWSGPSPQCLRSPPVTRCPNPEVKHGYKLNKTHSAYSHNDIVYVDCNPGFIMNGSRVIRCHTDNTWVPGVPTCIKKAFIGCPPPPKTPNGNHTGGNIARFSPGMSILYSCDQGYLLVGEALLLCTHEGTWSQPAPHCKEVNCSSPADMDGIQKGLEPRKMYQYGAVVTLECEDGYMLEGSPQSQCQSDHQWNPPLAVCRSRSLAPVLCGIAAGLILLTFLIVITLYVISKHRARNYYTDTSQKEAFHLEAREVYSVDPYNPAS", "data": [{"substance": "gp350/220 (from UniProt P03200)", "values": [{"measurement": "Kd", "value": 12, "unit": "nM"}]}]}
